The nanobody polyreactivity screen of Harvey et al. (2022)

Test: yeast display, Sf9 membrane polyspecificity reagent, FACS + sequencing; frameworks hold sequencing errors
Procedure, shortened: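 Galactose-induced (36–48 hours) yeast carrying a synthetic nanobody display library were exposed to 10% biotinylated, detergent-solubilized Sf9 membrane reagent at 4 °C for 1 hour. FACS followed streptavidin microbead enrichment, using low and high (top ~1%) gates for expression (anti-HA) and reagent binding (streptavidin). Colony PCR, MiSeq 2 × 250 sequencing and CDR-length filtering followed. Labels for polyreactivity reflect the gate of origin.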

Sequence	polyreactivity (PSR sort gate)
QVQLVESGGGLVQAGGSLRLSCAASGFTFSRKAMGWYRQAPGKERELVASITRSGASTYYADSVKGRFTISRDNAKNTVYLQMNSLKPEDTAVYYCNAYYVALPPNMDYWGQGTQVTLSS	high polyreactivity
QVQLVESGGGLVQAGGSLRLSCAASGFTFSRNTMGWYRQAPGKARELVARISASGGSTYYADSVKGRFTISRDNAKNTVYLQMNSLKPEDTAVYYCAAVYRRYGGSRYDYWGQGTQVTVSS	high polyreactivity
QVQLVESGGGLVQAGGSLRLSCAASGFTFSRNVMGWYRQAPGKERELVADITLSGASTYYADSVKGRFTISRDNAKNTVYLQMNSLKPEDTAVYYCAADPYHWRWGWRLDYWGQGTQVTVSS	low polyreactivity
QVQLVESGGGLVQAGGSLRLSCAASGFTFSRYAMGWYIQAPGKERELVAAITRGGSTNYADSVKGRFTISRDNAKNTVYLQMNSLKPEDTAVYYCAVRIRYSTNAYYYWGQGTQVTVSS	high polyreactivity
QVQLVESGGGLVQAGGSLRLSCAASGFTFSRYAMGWYRQAPGKERELVAAISYSGGRTYYADSVKGRFTISRDNAKNTVYLQMNSLKPEDTAVYYCNATWQSGHGWGQGTQVTVSS	high polyreactivity
QVQLVESGGGLVQAGGSLRLSCAASGFTFSRYTMGWYRQAPGKERELVAAINRRGGSTYYADSVKGRFTISRDNAKNTVYLQMNSLKPEDTAVYYCAAAVYLGRFGVILGYWGQGTQVTVSS	high polyreactivity
QVQLVESGGGLVQAGGSLRLSCAASGFTFSRYTMGWYRQAPGKERELVAAISFSGVRTYYADSVKGRFTISRDNAKNSVYLQMNSLKPEDTAVYYCNRVSRTRGLNLYDYWGQGTQVTVSS	high polyreactivity
QVQLVESGGGLVQAGGSLRLSCAASGFTFSSYAMGGYRQAPGKERELVAAISSNGRTYYADSVKGRFTISRDNAKNTVYLQMNSQKREDTAVYYCARNIPVSYYRYGYWGQGTQVTVSS	high polyreactivity
QVQLVESGGGLVQAGGSLRLSCAASGFTFSSYAMGWSRQAPGKERELVAAITISGGRTYYADSVKGRFTISRDNAKNTVYLQMNSLIPEDTAVYYCAAVGRLARRDYWGQGTQVTVSS	high polyreactivity
QVQLVESGGGLVQAGGSLRLSCAASGFTFSSYAMGWYRQAPGKERELVAAITGGGSRTYYADSVKGRFTISRDNAKNTVYLQMYSLKPEDTAVYYCAKGLSTGRAYRGYDYWGQGTQVTVSS	high polyreactivity
QVQLVESGGGLVQAGGSLRLSCAASGFTFSSYAMGWYRQAPGKERELVAAITQSGGRTYYADSVKGRFTISRDNAKNTVYLQMNSLKPEDTAVYYCAADVPLWYDYGGQGTQVTVSS	low polyreactivity
QVQLVESGGGLVQAGGSLRLSCAASGFTFSTNAMAWYRQAPGKERELVAAITSSGGSTYYADSVKGRFTISRDNAKNTVYLQMNSLKPEDTAVYYCATGPSQVGGDYWGQGTQVTVSS	high polyreactivity
QVQLVESGGGLVQAGGSLRLSCAASGFTFSTNAMGWYRQAPGKERELVAAISKSGVSTYYADSVKGRFTISRDNAKNTVYLQMNSLKTEDTAVYYCAADPKIALYKVWRYDYWGQGTQVTVSS	high polyreactivity
QVQLVESGGGLVQAGGSLRLSCAASGFTFSTYAMGWYRQAPGKERELVAAISRSGGSTYYADSVKGRFTISRDNAKNTVYLQMNSLKPEDTAVYYCAADGLRRESSYYYWGQGTQVTVSS	high polyreactivity
QVQLVESGGGLVQAGGSLRLSCAASGFTFSTYAMGWYRQAPGKESELVAVISGGDSTSYADSVKGRFTISRDNAKNTVYLQMNSLKPEDTAVYYCAADRYGGYYGDTYYTGLFNYWGQGTQVTVSS	high polyreactivity
QVQLVESGGGLVQAGGSLRLSCAASGFTFSVYAMGWYRQAPGKERELVAVITKRGGSTYYADSVKGRFTISRDNAKNTVYLQMNSLKPEDTAVYYCNAYLQGKIFPYGYWGQGTQVTVSS	high polyreactivity
QVQLVESGGGLVQAGGSLRLSCAASGFTFSVYVMGWYRQAPGKERELVAAISSGGDTTYADSVKGRFTISRDNAKNTVYLQMNSLKPEDTAVYYCAAYRVILYYLYDYWGQGTQVTVSS	low polyreactivity
QVQLVESGGGLVQAGGSLRLSCAASGFTFSWNTMGWYRQAPGKERELVATISGSGGRTYYADSVKGRFTISRDKAKNTVYLQLNSLKPEDTAVYYCAKRRASRYYWGQGTQVTVSS	high polyreactivity
QVQLVESGGGLVQAGGSLRLSCAASGFTFSWNVMGWYRQAPGKERELVAAISTSYGGTYYADSVKGRFTISRDNAKNTVYLQMNSLKPEDTAVYYCATLYYPNTSYEYYYWGQGTQVTVSS	low polyreactivity
QVQLVESGGGLVQAGGSLRLSCAASGFTFSWYAMGWSRQAPGKERELVAGISYSGTRTFYADSVKGRFTISRDNAKNTVYLQMNSLTPEDTAVYYCAAVVPGRTVLQPEYDYWGQGTQVTVSS	low polyreactivity
QVQLVESGGGLVQAGGSLRLSCAASGFTFSWYAMGWYRQAPGKERELVAAINADGGTTYYADSVKGRFTISRDNAKNTVYLQMNSLKPEDTAVYYCAVPYPYGYEYDHWGQGTQVTVSS	low polyreactivity
QVQLVESGGGLVQAGGSLRLSCAASGFTFSWYAMGWYRQAPGKERELVAAITRSGGSTNYADSVKGRFTISRDNAKNTVYLQMNSLKPEDTAVYYCNAAGYRRSTWWYDYWGQGTQVTVSS	high polyreactivity

Sequence	polyreactivity (PSR sort gate)
QVQLVESGGGLVQAGGSLRLSCAASGFTFSYNAMGWYRQAPGKERELVAAISSGGRTHYADSVKGRFTISRDNAKNTVYLQMNILKPEDTAVYYCNAQKYPRYSRTSGRNYNYWGQGTQVTVSS	high polyreactivity
QVQLVESGGGLVQAGGSLRLSCAASGFTFSYYAMGWYRQAPGKERELVAAISWSGGSTYSADSVKGRFTISRDNAKNTVYLQMNSLKPEDTAVYYCAAEVYFLATGTWYDYWGQGTQVTVSS	high polyreactivity
QVQLVESGGGLVQAGGSLRLSCAASGFTFSYYAMGWYRQAPGKERELVAAITSGGSTYYADSVKGRFTISRDNAKNTVYLQMNSLKPEDTAVYYCNARGYGTLNVRRERMDYWGQGTQVTVSS	high polyreactivity
QVQLVESGGGLVQAGGSLRLSCAASGFTFSYYDMGWYRQAPGKERELVAAISSSASRTYYADSVKGRFTISRDNAKNTVYLQMNSLKPEDTAVYYCAARYSESRTGHLDYWGQGTQVTVSS	high polyreactivity
QVQLVESGGGLVQAGGSLRLSCAASGFTFSYYGMGWNIQAPRKERELVPALTRSGTNTYYADSVKGRFTISRDNAKNTVYLQMKSLKPEDTAVFYCNADVAWSGYHDWYWSSEDYWGQGTQVTVSS	low polyreactivity
QVQLVESGGGLVQAGGSLRLSCAASGFTFTDYAMGWYRQAPGKERELVAAISGIGGSTYYADSVKGRFTISRDNAKNTVYLQMNSLKPEDTAVYYCAAELTKWRFWGLHDSWGQGTQVTVSS	high polyreactivity
QVQLVESGGGLVQAGGSLRLSCAASGFTFTDYAMGWYRRAPGKESELVAAISSGGSTNYADSVKGRFTISRDNAKNTVYLQMNSLKPEDTAVYYCAAYYVYRAPVRYEYWGQGTQVTVSS	high polyreactivity
QVQLVESGGGLVQAGGSLRLSCAASGFTFTDYTMGWYRQAPGKEREFVAAISYRGSNTYYADSVKGRFTISRDNAKNTVYLQMNSLKPEDTAVYYCAADSYRYKYNYWGQGTQVTVSS	high polyreactivity
QVQLVESGGGLVQAGGSLRLSCAASGFTFTGNAMVWYRQAPGKERELVAAIRGSGGSTYYADSVKGRFTISRDNAKNTVNLQMKSLKPDVTAVYYCATYYIRNKGFDYWGQGTQVTVSS	high polyreactivity
QVQLVESGGGLVQAGGSLRLSCAASGFTFTGYAMGWYRQAPGKERELVAAISHDGGSTYYADSVKGRFTISRDNAKNTVYLQMNSLKPEDTAVYYCAAAFRAAGRTVRYYWGQGTQVTVSS	high polyreactivity
QVQLVESGGGLVQAGGSLRLSCAASGFTFTGYAMGWYRQAPGKERELVAALTRGGGSTYYADSVKGRFTISRDNAKNTVYLQMNSLKPEDTAVYYCAAQRSRLIRISSPYYGHDYWGQGTQVTVSS	low polyreactivity
QVQLVESGGGLVQAGGSLRLSCAASGFTFTLYAMGWYRQAPGKERELVAAISWNGSTYYADSVKGRFTISRDNAKNTVYLQMNSLKPEDTAVYYCNADVWISYNNAYVTLDYWGQGTQVTVSS	high polyreactivity
QVQLVESGGGLVQAGGSLRLSCAASGFTFTPNAMGWYRQAPGKERELVAAITWNGGTTYYADSVKGRFTISRDNAKNTVYLQMNSLKPEDTAVYYCNADGLILYDYWGQGTQVTVSS	low polyreactivity
QVQLVESGGGLVQAGGSLRLSCAASGFTFTRYAMGRYRQAPGKERELGATITKRGGSTYYADSVKGRFTISRDNAKNTVYLQLNSLKPEDTAVYFCAARNVRTYVTGVDYDYWGQGTQVTVSS	high polyreactivity
QVQLVESGGGLVQAGGSLRLSCAASGFTFTRYAMGWYRQAPGKERELVAAISRIGGSTYYADSVKGRFTISRDNAKNTVYLQMNSLKPEDTAVYYCAAYKVPSYDYWGQGTQVTVSS	high polyreactivity
QVQLVESGGGLVQAGGSLRLSCAASGFTFTSYAMGWYRQAPGKERELVAAINRSGGSTTYADSEKGRFTISRDNAKNTVYLQMNSLKPEDTAVYYCAKAFRGHYWGQGTQVTVSS	high polyreactivity
QVQLVESGGGLVQAGGSLRLSCAASGFTFTSYTMGWYRQAPGKERELVAGISTNGGTTYYADSVKGRFTISRDNAKNTVYLQMNSLKPEDTAVYYCNAKRKYGRFPKKYYYWGQGTQVTVSS	high polyreactivity
QVQLVESGGGLVQAGGSLRLSCAASGFTFTVYAMGWYRQAPGQERELVATISRSAGRTYYADSVKGRFTISRDNAKNTVYLQMNSLKPEDTPVYYCNAAYGNGYTGGFDNWGQGTQVTVSS	high polyreactivity
QVQLVESGGGLVQAGGSLRLSCAASGFTFTWYAMGWYRQAPGKERELVATISRSGGRTYYADSVKGRFTISRDNAKNTVYLQLNSLKPEDTAVYYCAADTRNYPRYDYWGQGTQVTVSS	high polyreactivity
QVQLVESGGGLVQAGGSLRLSCAASGFTFTYYAMGWYRQAPGKERELVAAISSSGGRTYYADSVKGRFTISRDNAKNTVYLQMNSLKPEDTAVYYCAARSVSATPDFHYWGQGTQVTVSS	high polyreactivity
QVQLVESGGGLVQAGGSLRLSCAASGFTFVINDMGWYRQAPGTERELVADITSGGDTYYADSVKGRFTISRDNAKNTDYLQLNSLKPEDTAVYYCAADIYPDWIYLLYGYWGQGTQVTVSS	low polyreactivity
